Laboratory results published in the supplement of paper PMC10126150.
± gives the standard deviation of the averaged measurements.

test system: ATP; test: switch fluorescence ratio, 500 uM ATP over buffer (Cy3 cluster intensity, sum of 5 cycles each) (fold (ratio)); higher = stronger signal-on switching upon ATP binding; sequences stand for … in TCGTCGGCAGCGTCAGATGTGTATAAGAGACAGTTTTTTTTTTTTTTTTTTTTTTTTT…TC; conditions: aptamer strand: ATP DNA aptamer (quencher-CACCTGGGGGAGTATTGCGGAGGAAGG + anchor), 100 nM annealed; ATP concentration: 500 uM
Outline: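 Exposure to 500 uM ATP lasted 15 min at 22 °C before imaging, and a selection-buffer image was taken beforehand, for Cy3-labelled switching-strand clusters on a modified Illumina MiSeq flow-cell annealed to 100 nM quencher-labelled ATP aptamer. Five buffer/ATP cycles were run with NaOH stripping and re-annealing between them. The fluorescence ratio per cluster is summed target-cycle over summed buffer-cycle Cy3 intensity, averaged per switch-domain sequence. Clusters outside 100-1000 RFU were excluded.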

Sequence | switch fluorescence ratio
CGGGTGCGGT | 0.951 ± 0.045
ATCTATGCGA | 1.0635 ± 0.0004
ATAGCAGTTT | 1.02 ± 0.013
CTCTTGGGGA | 1.02 ± 0.0057
CGACGGGGGG | 1 ± 0.017
GCGATAGTTG | 1.02 ± 0.053
TTCAGTATTT | 1.08 ± 0.09
TTATATCAAT | 0.9999 ± 0.0041
AATGGGTCTG | 0.978 ± 0.052
GGGTATGTTT | 0.981 ± 0.03
GGGAGTATCT | 0.9998 ± 0.0028
AATTTCACCA | 0.999 ± 0.013
ATTTACGTCT | 1.04 ± 0.056
ACGTCTTTGT | 1 ± 0.088
TAAGGGTTTG | 0.977 ± 0.036
TATGTGCTTG | 0.991 ± 0.021
GCTGGGGTGC | 1 ± 0.09
AATCTGGGTA | 0.991 ± 0.016
AATGCTCGTA | 1.01 ± 0.023
GGGTCCTGGC | 0.985 ± 0.037
TTCTCGAATT | 1.01 ± 0.039
AGCCATATAG | 1.048 ± 0.0066
TATGTGAACA | 0.991 ± 0.025
TTGCAGGAGG | 1 ± 0.019
AGTAGGGCTT | 1.01 ± 0.039

Sequence | switch fluorescence ratio
ATTTGGGCCT | 1.02 ± 0.032
CAGGGATGGG | 0.961 ± 0.023
AGTGGCGTGT | 0.988 ± 0.022
TTCTATTGGT | 0.9828 ± 0.0023
TAGTAGACGA | 0.982 ± 0.034
GATATCGATG | 1.029 ± 0.0089
CTTAAGGGAA | 0.9915 ± 0.0065
ATAGGAGAGC | 1.044 ± 0.0021
AGGAGGTTGT | 0.976 ± 0.017
CGGGGATCGG | 0.984 ± 0.011
AAGTTGTTGA | 1 ± 0.028
CGCTGAGTAT | 0.995 ± 0.021
TGACGGATGG | 1.03 ± 0.051
GTTAGTGGTT | 1.02 ± 0.015
GGTTCAAAGT | 0.9703 ± 0.0047
TTGATGACGT | 0.9932 ± 0.0075
CAAGTAAGCG | 1.003 ± 0.0011
ATGTACAATT | 1.0917 ± 0.00014
GGACACTGGT | 1.06 ± 0.041
ACTACGATGG | 1.05 ± 0.018
TAGTTGCTTG | 1.03 ± 0.054
TTACCCTAGG | 1.14 ± 0.024
AGTAGCGGGA | 1.02 ± 0.024
TTTTTTTTGG | 0.998 ± 0.032
TAGGGATAG | 1.01 ± 0.015

Sequence | switch fluorescence ratio
ACAGTGCGCG | 1.03 ± 0.083
GCTGTTTCAG | 0.986 ± 0.016
ACGTATGGGC | 1.082 ± 0.0027
ATATTTTATT | 1.02 ± 0.031
ACATGGGGGC | 1 ± 0.045
GGAATCAAAC | 0.996 ± 0.0094
CTTAATCGGC | 1.09 ± 0.11
AATAGGGTTT | 0.967 ± 0.011
TTGAAGGTTA | 0.99 ± 0.016
TAATCGTGTT | 0.983 ± 0.014
TTTGGCGATT | 0.962 ± 0.017
TTATCATAGT | 1.005 ± 0.0064
CGTATTCTAG | 1 ± 0.023
AAAGGTGGGC | 0.98 ± 0.039
GCGTCAGTCG | 0.949 ± 0.015
TTTGCATCTC | 1.03 ± 0.044
ATGGCCTCGG | 1.02 ± 0.025
ATTTGATGGG | 0.977 ± 0.03
ATTGGGCATT | 1.018 ± 0.006
CAGTTTTATT | 0.992 ± 0.022
ATGTACAGGA | 1.05 ± 0.056
AAGCTCCTTT | 0.968 ± 0.011
ATAGTTTGAG | 1.01 ± 0.018
ATGGGTTGGT | 0.981 ± 0.016
GTTTAGGGGG | 0.994 ± 0.018

Sequence | switch fluorescence ratio
GTAAGGGGGG | 0.994 ± 0.028
TTTTTGGTAC | 1.05 ± 0.076
GGCTTTGTAG | 0.9956 ± 0.0081
GAAGGGTAGC | 0.996 ± 0.037
TTCAGTTTTT | 1 ± 0.026
AGAACTGTAA | 1.08 ± 0.034
AGGGGTAACG | 0.9807 ± 0.0098
CCTGGGTTTC | 1.008 ± 0.0052
AAAGGTTTGG | 0.976 ± 0.035
AGTTTTAGTA | 0.974 ± 0.03
TTTGATTTGT | 1.042 ± 0.0087
AGAGTACGTA | 1.041 ± 0.0065
CCGATGATTT | 1.5 ± 0.56
AGGGGTATTT | 1.01 ± 0.041
AGGTAGGTTC | 0.995 ± 0.019
AGACAATTCA | 1.02 ± 0.019
GTGTATGGGG | 0.968 ± 0.063
CGGGCAGCGT | 0.986 ± 0.0076
ATAGTTTGCC | 0.994 ± 0.043
GGTTTAAGGG | 0.972 ± 0.023
TTTTAGAGGG | 0.982 ± 0.034
TTTTCATGGC | 1.06 ± 0.018
AGGACTTAGG | 1.06 ± 0.056
AGTCATGGAG | 0.987 ± 0.042
GGGTTATGGG | 1.005 ± 0.008
